Source: publication PMC7873624 (Journal of molecular biology, 2020)

How the values were obtained:
[1] = target: recombinant USP7 UBL1-2 (residues 535–775) (UniProt Q93009 535-775); experiment: ITC
[2] = target: recombinant USP7 TRAF domain (residues 62–205) (UniProt Q93009 62-205); experiment: ITC
Sequence of recombinant USP7 TRAF domain (residues 62–205) (Q93009 62-205): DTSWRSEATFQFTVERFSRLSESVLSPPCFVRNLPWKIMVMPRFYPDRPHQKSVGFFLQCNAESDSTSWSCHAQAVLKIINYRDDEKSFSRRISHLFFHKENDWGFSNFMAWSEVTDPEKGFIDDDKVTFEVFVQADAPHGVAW

Sequence of recombinant USP7 UBL1-2 (residues 535–775) (Q93009 535-775): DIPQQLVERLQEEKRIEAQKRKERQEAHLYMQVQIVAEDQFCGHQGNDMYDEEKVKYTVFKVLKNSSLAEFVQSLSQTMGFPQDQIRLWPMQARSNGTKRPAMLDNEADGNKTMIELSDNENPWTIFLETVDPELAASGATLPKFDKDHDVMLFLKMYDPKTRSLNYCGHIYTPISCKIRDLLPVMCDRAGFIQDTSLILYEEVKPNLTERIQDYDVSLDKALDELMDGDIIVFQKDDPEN

Binder | Kd [1] [µM] | Kd [2] [µM]
SGKHSFKMKDT [Pol ι peptide 438–448] | 169 | –
SPCEPGTSGFN [Pol ι peptide 573–584] | – | 4.8
